Data as given in patent publication US20230088483A1, “USE OF R[…] GENE DERIVED PROTEIN OR FRAGMENT THEREOF” (priority 2020, published 2023).
Read-outs that look alike come from different tables or passages of the source.

System: SARS-CoV-2 (C-Tan-nCoV Wuhan strain 01)
Type: cell-based
Conditions: Vero cells; for Ct value: 100 PFU/well, medicine added 2 h after infection, supernatant at 24 h, qRT-PCR target ORF1a/b, control group Ct 22.6

B1: Novaferon: Recombinant cytokine gene derived protein, an analog of interferon (SEQ ID NO: 1); applicant's product, Genova Biotech (Qingdao) Co., Ltd. (protein)
chain: CNLSQTHSLGSKRTLMLLAQMGKISLFSCLKDRHDFEFPQEEFDGNQFQKAQAISVLHELIQQTFNLFSTKESSAAWDEGLLDKFRTELYRQLNDLEACMMQEVGVEETPLMNADSILAVKKYFQRITLYLMEKKYSPCAWEVVRVEIMRSLSFSTNLQKRLRGKD
modifications: Amino Acid Sequences Synthesized by Chemical Means
**Q.** With B1 as the molecule, how does the Ct value (Novaferon 0.001 ng/mL) read?
**A.** 22.645

**Q.** And the Ct value (Novaferon 0.01 ng/mL)?
**A.** 22.685

**Q.** What about the Ct value (Novaferon 0.1 ng/mL) of the same molecule?
**A.** 22.815

**Q.** What about the Ct value (Novaferon 1 ng/mL) of the same molecule?
**A.** 23.665

**Q.** What about the Ct value (Novaferon 10 ng/mL) of the same molecule?
**A.** 29.025

**Q.** What about the Ct value (Novaferon 100 ng/mL) of the same molecule?
**A.** 27.625

**Q.** And the “cytopathic effect (CPE)” value (medicine concentration 10 ng/mL)?
**A.** no obvious cytopathic effect

**Q.** What about the “cytopathic effect (CPE)” value (medicine concentration 100 ng/mL) of the same molecule?
**A.** no obvious cytopathic effect

**Q.** And the “half maximal inhibitory concentration IC50 for the SARS-CoV-2 in vitro” value (preliminary calculation from inhibition rates based on Ct values)?
**A.** 1.02 ng/mL
